Results from patent publication US20040235117A1.
Several values for one entry are separate records, joined by “and”; a condition that tells them apart may be missing. Equal values may be shown once. Each block holds one molecule with its values, some of them ahead of it.

What was measured:
[1] = target: Flag-CD40L (AA 116 to 261) (human) (UniProt P29965); assay: competitive ELISA, CD40:Fc coated on the plate, sCD40L at constant concentration
[2] = target: fusion protein (3), super FasL (human) (UniProt P48023); assay: cell-based or functional assay
[3] = target: fusion protein (5), TRAIL-ACRP30 (murine; human) (UniProt Q60994); assay: cell-based or functional assay
[4] = target: fusion protein (1), FasL trimer (flag sequence, linker, hFasL AA 139 to 281) (human) (UniProt P48023); assay: BIAcore, 7 ul of 2.5 ug/ml Flag-FasL over immobilised M2 antibody
[5] = target: TRAIL trimer (flag sequence, linker, hTRAIL AA 95 to 281) (human) (UniProt P50591); assay: BIAcore, 7 ul of 2.5 ug/ml Flag-TRAIL over immobilised M2 antibody
[6] = target: TNF receptor 2 (TNF-R2) on CT6 cells (mouse (on CT6 cells of mice)) (UniProt P25119); assay: cell-based or functional assay
[7] = target: fusion protein (1), FasL trimer (flag sequence, linker, hFasL AA 139 to 281) (human) (UniProt P48023); assay: cell-based or functional assay
[8] = target: Flag-CD40L (AA 116 to 261) (human) (UniProt P29965); assay: competitive ELISA, CD40:Fc coated on the plate, sCD40L at constant concentration, protein A 1 ug/ml
[9] = target: fusion protein (1), FasL trimer (flag sequence, linker, hFasL AA 139 to 281) (human) (UniProt P48023); assay: cell-based or functional assay; remark: listed apart in the source
[10] = target: fusion protein (1), FasL trimer (flag sequence, linker, hFasL AA 139 to 281) (human) (UniProt P48023); assay: BIAcore, Flag-FasL captured on an M2-modified CM5 chip; reference Fas:Fc
[11] = target: fusion protein (1), FasL trimer (flag sequence, linker, hFasL AA 139 to 281) (human) (UniProt P48023); assay: BIAcore, Flag-FasL captured on an M2-modified CM5 chip, receptor fusion protein injected

Sequence of UniProt P50591 (P50591 other isoform, or with tags, fused parts or gaps limits assumed): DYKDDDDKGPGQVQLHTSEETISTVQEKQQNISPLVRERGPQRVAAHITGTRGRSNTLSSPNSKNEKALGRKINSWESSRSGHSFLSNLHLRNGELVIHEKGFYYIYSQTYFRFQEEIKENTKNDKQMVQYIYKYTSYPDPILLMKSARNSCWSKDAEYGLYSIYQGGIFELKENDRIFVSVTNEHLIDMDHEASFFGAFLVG
Sequence of UniProt P29965 (P29965 other isoform, or with tags, fused parts or gaps limits assumed): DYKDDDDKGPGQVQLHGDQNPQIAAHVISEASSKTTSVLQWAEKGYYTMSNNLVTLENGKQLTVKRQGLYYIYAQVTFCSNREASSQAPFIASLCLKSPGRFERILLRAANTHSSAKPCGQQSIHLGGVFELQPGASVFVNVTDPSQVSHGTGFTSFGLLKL
Sequence of UniProt P25119 (P25119 23-474): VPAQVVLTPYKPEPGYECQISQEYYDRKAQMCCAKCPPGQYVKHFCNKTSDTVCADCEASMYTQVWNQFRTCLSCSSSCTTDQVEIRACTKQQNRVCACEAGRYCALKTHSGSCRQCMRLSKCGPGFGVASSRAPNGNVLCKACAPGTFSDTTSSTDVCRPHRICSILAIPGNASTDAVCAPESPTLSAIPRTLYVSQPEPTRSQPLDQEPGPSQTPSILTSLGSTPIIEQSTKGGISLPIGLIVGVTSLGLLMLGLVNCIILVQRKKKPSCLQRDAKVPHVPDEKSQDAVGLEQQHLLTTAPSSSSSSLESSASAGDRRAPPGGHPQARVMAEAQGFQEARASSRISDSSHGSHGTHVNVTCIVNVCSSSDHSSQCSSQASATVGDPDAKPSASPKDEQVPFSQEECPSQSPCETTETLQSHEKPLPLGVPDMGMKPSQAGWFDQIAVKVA
Sequence of UniProt Q60994 (Q60994 other isoform, or with tags, fused parts or gaps limits assumed): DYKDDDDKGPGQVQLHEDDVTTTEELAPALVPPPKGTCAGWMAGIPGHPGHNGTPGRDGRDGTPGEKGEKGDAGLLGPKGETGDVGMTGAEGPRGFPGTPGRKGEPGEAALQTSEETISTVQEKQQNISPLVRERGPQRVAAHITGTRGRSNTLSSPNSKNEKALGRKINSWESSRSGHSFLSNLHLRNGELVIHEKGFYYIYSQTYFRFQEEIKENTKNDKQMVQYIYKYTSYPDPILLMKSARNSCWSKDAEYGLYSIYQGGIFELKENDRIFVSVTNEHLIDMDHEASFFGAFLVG

Molecule: CD40:COMP (receptor)
fold increase in the affinity (against CD40:Fc) [1]: 30 fold

Molecule: CD40:Fc/PA (from UniProt P25942 21-193) (Fc fusion)
fold increase in the affinity (against CD40:Fc) [8]: 8 fold

B1: Fas:COMP (receptor, not shown: small tags and cut ends)
chain: QVTDINSKGLELRKTVTTVETQNLEGLHHDGQFCHKPCPPGERKARDCTVNGDEPDCVPCQEGKEYTDKAHFSSKCRRCRLCDEGHGLEVEINCTRTQNTKCRCKPNFFCNSTVCEHCDPCTKCEHGIIKECTLTSNTKCKEEGSPQPQPKPQPKPEPEGGCCQMLRELQETNAALQDVRELLRHRVKEITFLKNTVMECDACGMQPARTPGGGS
modifications: Assembles as a disulphide-linked pentamer through the COMP coiled coil (about 400 kDa by gel filtration). N-glycosylated.
inhibitory activity in cytotoxicity tests on cell lines, fold over Fas:Fc [9]: 10 to 20 fold
fold lower dissociation constant than Fas:Fc [10]: 8 to 9 fold
Kd [11]: 0.77 nM

The next lines start with results.

units bound (BIAcore response) [4]: 100 to 150 units
units bound (BIAcore response) [5]: 100 to 150 units
Molecule: anti-flag M2 monoclonal antibody
cytotoxic assay on A20 and Jurkat cells, fold increase of apoptotic activity [2]: 2 fold and > 1.5 fold
cytotoxic assay on Jurkat cells, fold increase of apoptosis-inducing activity [3]: > 10 fold

3[H]-thymidin incorporation into CT6 cells (cell proliferation) [6]: 5 ng/mL
Molecule: fusion protein (6), TNFα-ACRP30 (from UniProt Q60994 18-111; P06804 77-235) (ligand)

inhibition of sFasL-mediated lysis, fold less effective than Fas:COMP [7]: 5 fold
Molecule: Fas:CMP (from UniProt P25445 1-170) (receptor)
